# Data as given in article PMC5001591.
# What was measured:
# Settings in all cases: EMSA: 4 nM 32P-RNA, 1X RNA Structure Buffer, 1 ug yeast RNA in 10 ul, 37 C 15 min (plus 1 h room temperature with mRNA); native 6% PAGE, 0.5X TBE, 4 C; pH and …
# [1] = molecular target: Hfq (UniProt P0A6X3); assay: footprinting (RNase T1)
# [2] = molecular target: Hfq (UniProt P0A6X3); assay: EMSA
# [3] = tested on: Hfq; assay: EMSA
# Sequence of Hfq (UniProt P0A6X3) (P0A6X3 2-102): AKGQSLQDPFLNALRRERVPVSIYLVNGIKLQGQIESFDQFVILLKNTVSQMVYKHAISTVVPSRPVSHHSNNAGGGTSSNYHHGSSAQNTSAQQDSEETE
substance,measurement,setting,value
GGGAUUCAGGCAAUGAAUUACUUUUGCAAGCCAUCGCAUUCUCUUAUGUUAUUAAUGAGUUAUGCUGAUUUGUUAAGCAGUUUUAUCAGGCUUGAAAUGGCGUCCAGCCCCGACAGGUGAAUCGUCGGGGCUGAUUUUUUC [SdsN137],binding,[1],binds
same,Kd,[2],0.08 µM
GGGUUCAAACUAUCACAUAAAUAAGAUUUAUAUAUAAUUUAUAUUAUUCAGGCAAUGAAUUACUUUUGCAAGCCAUCGCAUUCUCUUAUGUUAUUAAUGAGUUAUGCUGAUUUGUUAAGCAGUUUUAUCAGGCUUGAAAUGGCGUCCAGCCCCGACAGGUGAAUCGUCGGGGCUGAUUUUUUC [SdsN178],binding,[1],binds
same,Kd,[2],0.028 µM
SdsN137,Kd,[3],0.08 µM
SdsN178,Kd,[3],0.028 µM
